1 substance from patent EP4545563A1, “ANTIBODIES TARGETING ITGA2 AND ANTIBODY-DRUG […]” (Foreseen Technology (Beijing) Co., Ltd., priority 2022, dated 2024) can be followed below.

The target in this assay is ITGA2 protein on the surface of human tumor cells (HuCCT1, A431) (human) (UniProt P17301). Description: cell-based or functional assay.
Chain of ITGA2 protein on the surface of human tumor cells (HuCCT1, A431) (human) (P17301 30-1181): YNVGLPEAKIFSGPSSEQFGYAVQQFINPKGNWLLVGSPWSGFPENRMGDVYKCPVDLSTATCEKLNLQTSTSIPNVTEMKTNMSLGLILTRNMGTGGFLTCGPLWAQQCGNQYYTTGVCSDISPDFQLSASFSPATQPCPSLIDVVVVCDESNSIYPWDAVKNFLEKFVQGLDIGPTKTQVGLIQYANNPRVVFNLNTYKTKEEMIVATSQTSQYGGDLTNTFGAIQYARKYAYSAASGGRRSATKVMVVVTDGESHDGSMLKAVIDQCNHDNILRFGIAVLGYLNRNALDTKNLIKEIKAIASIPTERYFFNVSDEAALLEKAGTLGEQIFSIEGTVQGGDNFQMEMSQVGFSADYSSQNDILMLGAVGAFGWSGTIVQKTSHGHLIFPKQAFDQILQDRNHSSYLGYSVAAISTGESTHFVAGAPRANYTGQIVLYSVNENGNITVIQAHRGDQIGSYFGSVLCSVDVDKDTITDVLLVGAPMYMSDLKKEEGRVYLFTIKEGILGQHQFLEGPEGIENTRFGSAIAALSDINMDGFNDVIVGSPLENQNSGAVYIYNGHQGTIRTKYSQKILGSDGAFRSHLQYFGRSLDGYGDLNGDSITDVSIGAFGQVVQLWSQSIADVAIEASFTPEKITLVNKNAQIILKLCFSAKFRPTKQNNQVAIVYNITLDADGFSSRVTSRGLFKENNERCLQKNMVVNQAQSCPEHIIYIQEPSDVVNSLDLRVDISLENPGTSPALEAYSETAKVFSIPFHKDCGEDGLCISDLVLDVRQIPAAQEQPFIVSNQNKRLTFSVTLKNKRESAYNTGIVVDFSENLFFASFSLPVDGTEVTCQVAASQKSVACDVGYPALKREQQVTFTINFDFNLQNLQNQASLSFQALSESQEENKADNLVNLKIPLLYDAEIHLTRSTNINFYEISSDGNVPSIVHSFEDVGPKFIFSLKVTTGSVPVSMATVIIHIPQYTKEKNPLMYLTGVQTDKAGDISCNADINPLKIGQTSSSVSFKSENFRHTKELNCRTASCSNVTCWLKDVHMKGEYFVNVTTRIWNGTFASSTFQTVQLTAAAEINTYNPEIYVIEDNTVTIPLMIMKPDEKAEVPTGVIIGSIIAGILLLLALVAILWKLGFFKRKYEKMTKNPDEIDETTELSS

Substance Vatelizumab-ve-MMAE (antibody) yielded an A431 cell killing IC50 of 0.08 nM and a HuCC-T1 cell killing IC50 of 0.89 nM.
